Results on 3 molecules are retold here after patent US20190233823 (AEROVIRUS TECHNOLOGIES INC., published 2019).

The data set concerns the target P97 cilium adhesin ectodomain fragment (P97 peptidic complex, SELEX target section 768-925) (Mycoplasma hyopneumoniae). The experiment in a line: ELONA. Particulars: tags: His (histidine labelled, Ni-NTA captured). How it is done: Selected ssDNA molecules from each individual clone were biotinylated using the B-T3 which is same sequence with 5′ primer (T3 primer), and Klenow fragment (2 unit/ml). To prepare single stranded biotin conjugated APT3Cooc10 aptamer for the reverse screening. T3 Primer was Biotin labelled. A 96-well flat bottom ELISA plate was prepared by coating each well with 100 μl of streptavidin (100 μg/ml) diluted in 0.1 M NaHCO₃ following by a 37° C. overnight incubation. Following several washings with PBS, wells were blocked with 200 μl of PBS containing 1% BSA for 2 hours at room temperature and subsequent washing three times with PBS-T (10 mM PBS containing 0.05% (v/v) Tween-20). Thereafter, 100 μl of 2.5 pmole/100 μl biotinylated-ssDNA were added to the wells and incubated at 37° C. for 2 hours followed by washing four times with PBS-T. T3 primer was used as negative control. Following washing, 100 μl of fluid containing 2 μg histidine labelled P97 peptidic complex were added to the indicated wells and incubated at 37° C. for 2 hours. The wells were then washed for 4 times with PBS-T. The reverse screening assay was completed using the DAKO Mycoplasma Hyopneumoniae ELISA tests (K004311-9 kit, Oxoid Ltd, UK).

B1: APT3Cooc3 (ssDNA)
DNA: GCCTGTTGTGAGCCTCCTAACTAGCTCGTAGAAAAAAAATATAGCGTGTGCTGGGACTGCTCGGGATTGCGGACACATGCTTATTCTTGTCTCCC
B1: the binding result is recorded as “binds”.

B2: APT3Cooc10 (ssDNA)
DNA: GCCTGTTGTGAGCCTCCTAACGGGTATGACTACAGATGCAGGGCGGCCTGTAGCCTTGCATTGACAAGGGCATGCTTATTCTTGTCTCCC
In the case of B2, the binding result is “binds”.

B3: APT3Histo1 (ssDNA)
DNA: GCCTGTTGTGAGCCTCCTAACCGCACGTGGGTATTCTAAGTGCGGTAGCTCAATGGTGAGCGATGAGCATCATGCTTATTCTTGTCTCCC
On to B3, for which the binding result is listed as “binds”.
